Consider 6 substances from patent US20220033520A1.

For test [1], the target named is human FcRn complex (FCGRT and beta-2 microglobulin), recombinant, purified (human) (UniProt P55899). The experiment in a line: SPR, anti-human Fab capture, pH 6, steady state.
Test [2] has the same target. Kind of test: SPR, protein L capture, pH 7.4, steady state. Background: Surface plasmon resonance follows binding to a sensor surface in real time, without labels.
Test [3] has the same target. The experiment in a line: SPR, anti-human Fab capture, pH 7.4, steady state.
In test [4] the target is human FcRn (FCGRT and beta-2 microglobulin) expressed on MDCK II cells (human) (UniProt P55899). Kind of test: cell-based or functional assay.
The target in test [5] is human FcRn complex (FCGRT and beta-2 microglobulin), recombinant, purified (human) (UniProt P55899). The experiment in a line: SPR, protein L capture, pH 6, kinetic.
In test [6] the target is murine FcRn complex (Fcgrt and beta-2 microglobulin), recombinant (mouse) (UniProt Q61559). Kind of test: binding to mFcRn at pH 6.0 (FIG. 2D).
The target is the same in test [7]. The experiment in a line: binding to mFcRn at pH 7.4 (FIG. 2D).

pKd: −log10 of the molar value.

Sequence of human FcRn complex (FCGRT and beta-2 microglobulin), recombinant, purified (human) (P55899 24-297 limits assumed, chain 1 of 2): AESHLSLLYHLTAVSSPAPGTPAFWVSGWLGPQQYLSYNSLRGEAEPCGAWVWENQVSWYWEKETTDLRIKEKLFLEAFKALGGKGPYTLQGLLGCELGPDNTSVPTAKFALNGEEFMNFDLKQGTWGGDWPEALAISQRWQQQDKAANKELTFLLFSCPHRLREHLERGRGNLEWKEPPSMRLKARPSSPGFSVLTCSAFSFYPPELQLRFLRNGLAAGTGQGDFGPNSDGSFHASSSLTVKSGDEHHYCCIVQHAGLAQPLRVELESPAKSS
Sequence of human FcRn complex (FCGRT and beta-2 microglobulin), recombinant, purified (human) (P61769 21-119 limits assumed, chain 2 of 2, further chain): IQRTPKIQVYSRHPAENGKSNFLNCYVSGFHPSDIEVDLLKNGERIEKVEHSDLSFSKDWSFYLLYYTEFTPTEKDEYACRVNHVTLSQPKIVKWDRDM
Sequence of human FcRn (FCGRT and beta-2 microglobulin) expressed on MDCK II cells (human) (P55899 24-365, chain 1 of 2): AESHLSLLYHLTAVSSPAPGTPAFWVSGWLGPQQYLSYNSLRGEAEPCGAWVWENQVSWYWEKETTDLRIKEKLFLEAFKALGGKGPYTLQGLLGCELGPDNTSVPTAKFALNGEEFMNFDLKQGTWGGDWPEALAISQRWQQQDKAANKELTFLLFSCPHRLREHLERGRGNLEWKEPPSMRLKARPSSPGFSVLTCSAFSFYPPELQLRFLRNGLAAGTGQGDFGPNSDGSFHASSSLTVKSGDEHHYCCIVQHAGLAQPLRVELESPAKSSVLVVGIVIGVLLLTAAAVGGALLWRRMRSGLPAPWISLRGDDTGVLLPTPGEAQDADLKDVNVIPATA
Sequence of human FcRn (FCGRT and beta-2 microglobulin) expressed on MDCK II cells (human) (P61769 21-119, chain 2 of 2, further chain): as the sequence (P61769 21-119 limits assumed, chain 2 of 2, further chain) above
Sequence of murine FcRn complex (Fcgrt and beta-2 microglobulin), recombinant (mouse) (Q61559 22-297, one chain of several): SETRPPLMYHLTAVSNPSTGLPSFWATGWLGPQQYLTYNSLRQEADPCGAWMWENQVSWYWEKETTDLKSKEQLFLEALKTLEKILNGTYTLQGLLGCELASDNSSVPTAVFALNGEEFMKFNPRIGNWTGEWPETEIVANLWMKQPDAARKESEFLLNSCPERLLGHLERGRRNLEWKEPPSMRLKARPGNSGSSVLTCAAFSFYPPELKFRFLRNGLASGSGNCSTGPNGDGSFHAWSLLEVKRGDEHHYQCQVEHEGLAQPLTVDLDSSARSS

The pKd is the Kd on a negative log10 scale, so that one unit is a factor of ten. One may read the koff as the first-order rate constant of dissociation. What is called kon is the second-order rate constant of association. For the substance “anti-BACE1 hIgG1 antibody, Fc modification Q95 (M252Y/T307Q/Q311A/N434Y)”, the pKd in test [1] is 8.16; in test [2] it was 6.64; in test [3], 6.62; in test [5], 8.13. Moreover, in test [4], the Transcytosis Normalized to WT (normalized to WT) stood at 100. Also, the koff in test [5] is 0.00608 s⁻¹. Also, the association rate constant (kon) in test [5] amounted to 828000 M⁻¹ s⁻¹.

With “anti-BACE1 hIgG1 antibody, Fc modification Q2 (M252Y/T307Q/M428L/N434Y)”, the pKd in test [1] is 8.06; in test [2], 6.18; in test [3], 6.68; in test [5] it was 7.95. The same substance registered a Transcytosis Normalized to WT (normalized to WT) in test [4] of 155. In test [5], the koff is 0.00648 s⁻¹. In test [5], the kon amounted to 582000 M⁻¹ s⁻¹.

In the case of “anti-BACE1 hIgG1 antibody, Fc modification Q7 (M252Y/Q311A/N434Y/Y436I)”, the pKd in test [1] is 8.14; in test [2] it was 6.53; in test [3], 6.57; in test [5] it was 8.22. The substance also had a Transcytosis Normalized to WT (normalized to WT) in test [4] of 108. For the same substance, the off-rate constant (koff) in test [5] is 0.00529 s⁻¹. For the same substance, the kon in test [5] came out at 920000 M⁻¹ s⁻¹.

As to “anti-BACE1 hIgG1 antibody, Fc modification D1 (M252Y/N434Y)”, the pKd was 7.89 in test [1], 6.02 in test [2], 6.00 in test [3] and 7.54 in test [5]. This substance also registered a Transcytosis Normalized to WT (normalized to WT) in test [4] of 79. Besides, the off-rate constant (koff) in test [5] was found to be 0.0264 s⁻¹. Besides, the kon in test [5] worked out at 919000 M⁻¹ s⁻¹.

For the substance “anti-BACE1 hIgG4 antibody, Fc modification Q5-IgG4 (M252Y/Q311I/N434Y/Y436I)”, the pKd in test [1] was 8.13; in test [2], 6.49; in test [3] it was 6.64; in test [5], 7.87. The Transcytosis Normalized to WT (normalized to WT) in test [4] was 95. Moreover, in test [5], the dissociation rate constant (koff) was found to be 0.0135 s⁻¹. The association rate constant (kon) in test [5] was 1.01e+06 M⁻¹ s⁻¹.

On to “hIgG1 antibody comprising modified Fc M252Y/S254T/T256E (YTE)”, for which the fold improvement of binding over wild-type hIgG1 in test [6] is 10 fold. Moreover, in test [4], the Transcytosis Normalized to WT (normalized to WT) was 1.9. The fold improvement of binding over wild-type hIgG1 in test [7] turned out to be 10 fold. Moreover, in test [5], the pKd is 6.81, the dissociation rate constant (koff) stood at 0.0635 s⁻¹ and the kon turned out to be 414000 M⁻¹ s⁻¹.
